According to patent publication US20220169695A1 (published 2022):

Target: T1, NY-ESO-1 peptide on HLA-C*03:04 (human)
T1 peptide: LAMPFATPM
Test: multimer staining
Source text: FIGS. 4A-4I are graphical representations of positive staining of Jurkat 76/CD8 cells transduced with C*03:04/NY-ESO-1₉₂₋₁₀₀ TCR genes with a cognate multimer. Jurkat 76/CD8 cells transduced with the C*03:04/NY-ESO-1₉₂₋₁₀₀ TCR (FIGS. 4B, 4E, and 4H) were stained with the C*03:04/NY-ESO-1₉₂₋₁₀₀ multimer (FIG. 4B). The C*03:04/HIV gag₁₆₄₋₁₇₂ multimer (FIGS. 4D, 4E, and 4F), C*07:02/MAGE-A1₂₈₉₋₂₉₇ TCR (clone CL2; FIGS. 4C, 4F, and 4I), and an unexchanged multimer (FIGS. 4G, 4H, and 4I) were employed as controls, as well as Jurkat 76/CD8 not transduced with a TCR (FIGS. 4A, 4D, and 4G). The percentage of multimer⁺ CD8⁺ cells is shown.
T cells (1×10⁵) were incubated for 30 minutes at 37° C. in the presence of 50 nM dasatinib (LC laboratories). The cells were then washed and incubated with 5-10 μg/ml of multimer for 30 minutes at room temperature, and R-phycoerythrin-conjugated AffiniPure Fab fragment goat anti-mouse IgG1 (Jackson ImmunoResearch Laboratories) was added for 15 minutes at 4° C. Next, the cells were washed three times and costained with an anti-CD8 mAb for 15 minutes at 4° C. Dead cells were finally discriminated using the LIVE/DEAD Fixable Dead Cell Stain kit.

- binding result: recognises
B1: C*03:04/NY-ESO-1 92-100 TCR (TCR, V domains shown)
Valpha: AQSVTQPDIHITVSEGASLELRCNYSYGATPYLFWYVQSPGQGLQLLLKYFSGDTLVQGIKGFEAEFKRSQSSFNLRKPSVHWSDAAEYFCAGMDSNYQLIWGAGTKLIIKP
Vbeta: NAGVTQTPKFQVLKTGQSMTLQCAQDMNHNSMYWYRQDPGMGLRLIYYSASEGTTDKGEVPNGYNVSRLNKREFSLRLESAAPSQTSVYFCASSLPLGYEQYFGPGTRLTVT
